Laboratory results reported in publication PMC6804595 (2018).
Where a chain is given by its changes, count along the chain named.

Assays:
Assay in all cases: SPR
[1] = molecular target: T1, CD147 L62A (human)
T1 chain: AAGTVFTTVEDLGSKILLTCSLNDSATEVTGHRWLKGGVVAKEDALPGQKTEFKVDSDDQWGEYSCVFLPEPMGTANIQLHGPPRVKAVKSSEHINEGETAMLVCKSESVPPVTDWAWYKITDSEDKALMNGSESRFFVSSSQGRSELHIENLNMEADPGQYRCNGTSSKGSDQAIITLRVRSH

[2] = molecular target: T2, CD147 E64A (human)
T2 chain: T1 chain with A41L, E43A

[3] = molecular target: T3, CD147 K63A (human)
T3 chain: T1 chain with A41L, K42A

[4] = molecular target: T4, ectodomain of CD147 (CD147_(ecto)), wild type (human)
T4 chain: T1 chain with A41L

[5] = molecular target: T5, CD147 D65A (human)
T5 chain: T1 chain with A41L, D44A

[6] = molecular target: T6, CD147 K63A/D65A double mutant (human)
T6 chain: T1 chain with A41L, K42A, D44A

[7] = molecular target: CD147 V61A

B1: anti-CD147 mAb 5A12 (antibody, V domains shown)
VH: EVKLEESGGGLVQPGGSMKLSCVASGFTFSNYWMHWVRQSPEKGLEWVAEIRLKSINYATHYAESVKGRFTISRDDSKSSVYLQMNNLRTEDTGIYYCTSYDYEYWGQGTLITVSA
VL: NIVMTQSPKSMSMSVGERVTLSCKASEIVGTYVSWYQQKPEQSPKLLIYGASNRYTGVPDRFTGSGSATDFTLTISSVQAEDLADYHCGQSYSYPFTFGSGTKLEIK
- Kd [1]: 2.71 nM
- Kd [2]: 7.07 nM
- Kd [3]: 576 nM
- Kd [4]: 0.566 nM
- Kd [5]: 12.7 nM
- Kd [6]: 115 nM
- Kd [7]: 0.97 nM
